According to patent US20230265151A1, “GIP/GLP1 CO-AGONIST COMPOUNDS” (priority 2020, published 2023):

T1: human GIP receptor (human, UniProt P48546 22-466)
T1 sequence (looked up): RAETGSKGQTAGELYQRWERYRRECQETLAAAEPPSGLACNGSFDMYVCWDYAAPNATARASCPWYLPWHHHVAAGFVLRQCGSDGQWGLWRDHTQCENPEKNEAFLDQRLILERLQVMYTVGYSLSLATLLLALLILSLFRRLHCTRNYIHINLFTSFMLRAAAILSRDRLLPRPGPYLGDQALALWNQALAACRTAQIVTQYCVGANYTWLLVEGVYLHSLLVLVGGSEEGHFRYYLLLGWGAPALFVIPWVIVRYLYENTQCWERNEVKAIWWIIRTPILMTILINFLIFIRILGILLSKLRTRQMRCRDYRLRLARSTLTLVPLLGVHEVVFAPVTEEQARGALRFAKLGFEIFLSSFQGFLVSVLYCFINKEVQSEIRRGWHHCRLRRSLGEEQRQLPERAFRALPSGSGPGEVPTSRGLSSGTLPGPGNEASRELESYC


Key:
human glucagon receptor = human glucagon receptor (human, UniProt P47871 26-477); assay: cell-based or functional assay
human GIP receptor = biological target: T1, human GIP receptor; assay: cell-based or functional assay

Binder	cAMP EC50 (1.0% HSA) (human glucagon receptor)	cAMP EC50 (1.0% HSA) (human GIP receptor)
YXEGTXTSDXSIXLDXIAQXEFIXXLIKGGKSSGAPPPS (Aib2, αMeF(2F)6, 4Pal10, αMeL13, Orn16, Aib20, D-Glu24, αMeY25; acylated K28, K31 (groups as in name); C-terminal amide) [Y-Aib-EGT-αMeF(2F)-TSD-4Pal-SI-αMeL-LD-Orn-IAQ-Aib-EFI-(D-Glu)-αMeY-LIK((2-[2-(2-Amino-ethoxy)-ethoxy]-acetyl)2-(γ-Glu)-CO-(CH2)12-CO2H)GGK((2-[2-(2-Amino-ethox …, listing 1 of 2 here]	> 9950 nM	1.66 nM
YXEGTXTSDXSIXLDXIAQXEFIKXLIKGGPSSGAPPPS (Aib2, αMeF(2F)6, 4Pal10, αMeL13, Orn16, Aib20, αMeY25; acylated K24, K28 (groups as in name); C-terminal amide) [Y-Aib-EGT-αMeF(2F)-TSD-4Pal-SI-αMeL-LD-Orn-IAQ-Aib-EFIK((2-[2-(2-Amino-ethoxy)-ethoxy]-acetyl)2-(γ-Glu)-CO-(CH2)12-CO2H)-αMeY-LIK((2-[2-(2-Amino-ethoxy)-ethoxy] …, listing 1 of 2 here]	> 9950 nM	1.73 nM
YXEGTXTSDXSIXLDXIAQXEFIKXLIEGGKSSGAPPPS (Aib2, αMeF(2F)6, 4Pal10, αMeL13, Orn16, Aib20, αMeY25; acylated K24, K31 (groups as in name); C-terminal amide) [Y-Aib-EGT-αMeF(2F)-TSD-4Pal-SI-αMeL-LD-Orn-IAQ-Aib-EFIK((2-[2-(2-Amino-ethoxy)-ethoxy]-acetyl)2-CO-(CH2)12-CO2H)-αMeY-LIEGGK((2-[2-(2-Amino-ethoxy)-ethoxy]-acet …, listing 1 of 3 here]	> 9950 nM	1.47 nM
YXEGTXTSDXSIXLDXIAQXEFIKXLIEGGKSSGAPPPS (Aib2, αMeF(2F)6, 4Pal10, αMeL13, Orn16, Aib20, αMeY25; acylated K24, K31 (groups as in name); C-terminal amide) [Y-Aib-EGT-αMeF(2F)-TSD-4Pal-SI-αMeL-LD-Orn-IAQ-Aib-EFIK((2-[2-(2-Amino-ethoxy)-ethoxy]-acetyl)2-(γ-Glu)-CO-(CH2)12-CO2H)-αMeY-LIEGGK((2-[2-(2-Amino-ethoxy)-etho …, listing 2 of 3 here]	> 9950 nM	3.07 nM
YXEGTXTSDXSIXLDXIAQXEFIKXLIEGGKSSGAPPPS (Aib2, αMeF(2F)6, 4Pal10, αMeL13, Orn16, Aib20, αMeY25; acylated K24, K31 (groups as in name); C-terminal amide) [Y-Aib-EGT-αMeF(2F)-TSD-4Pal-SI-αMeL-LD-Orn-IAQ-Aib-EFIK((εK)-(γ-Glu)-CO-(CH2)12-CO2H)-αMeY-LIEGGK((εK)-(γ-Glu)-CO-(CH2)12-CO2H)SSGAPPPS-NH2, listing 3 of 3 here]	> 9950 nM	2.06 nM
YXEGTXTSDXSIXLDXIAQXEFIKXLIKGGPSSGAPPPS (Aib2, αMeF(2F)6, 4Pal10, αMeL13, Orn16, Aib20, αMeY25; acylated K24, K28 (groups as in name); C-terminal amide) [Y-Aib-EGT-αMeF(2F)-TSD-4Pal-SI-αMeL-LD-Orn-IAQ-Aib-EFIK((2-[2-(2-Amino-ethoxy)-ethoxy]-acetyl)2-CO-(CH2)12-CO2H)-αMeY-LIK((2-[2-(2-Amino-ethoxy)-ethoxy]-acetyl) …, listing 2 of 2 here]	> 9950 nM	0.832 nM
YXEGTXTSDXSIXLDXIAQXEFIXXLIKGGKSSGAPPPS (Aib2, αMeF(2F)6, 4Pal10, αMeL13, Orn16, Aib20, D-Glu24, αMeY25; acylated K28, K31 (groups as in name); C-terminal amide) [Y-Aib-EGT-αMeF(2F)-TSD-4Pal-SI-αMeL-LD-Orn-IAQ-Aib-EFI-(D-Glu)-αMeY-LIK((2-[2-(2-Amino-ethoxy)-ethoxy]-acetyl)2-(γ-Glu)-CO-(CH2)14-CH3)GGK((2-[2-(2-Amino-ethoxy …, listing 2 of 2 here]	> 9950 nM	1.2 nM
